Biological target: aggrecan (core protein carrying chondroitin sulfate chains) made by rat chondrosarcoma LTC cells (rat) (UniProt P07897)

chondroitin sulfate synthesis activity (35S sulfate label in chondroitinase ABC-digested GAG fractions of transfected LTC cells and culture medium)	Substance
1.6 fold	human chondroitin sulfate glucuronyltransferase (enzyme)
2.2 fold	human chondroitin sulfate N-acetylgalactosaminyltransferase-1 (enzyme)

Source: patent US20070203087A1
